PMC12436618

Target: KIF1A-201(1-482)-His (mouse)
Assay: SEC; Superdex 200 Increase 10/300 GL; 250 µg of each protein at about 1.2 µg/µl; 20 mM PIPES-KOH pH 7.0, 150 mM KCl, 1 mM MgCl2, 0.1% Tween 20; size from a calibration curve of globular standards; monomer to dimer

stoichiometry N: 2
Substance: KIF1A-201(1-482)-His (domain or fragment)
